# Laboratory results reported in doi:10.1101/2024.01.22.576614.
# Read-outs that look alike come from different tables or passages of the source.
# How the values were obtained:
# Test in all cases: two-hybrid
# [1] = target: cAMP-binding transcriptional regulator Clr (Sinorhizobium meliloti)
# Leu zipper (Zip) [2] = target: Leu zipper (Zip)
# Leu zipper (Zip) [3] = target: Leu zipper (Zip); remark: listed apart in the source
# Leu zipper (Zip), sequence (P03069 whole entry): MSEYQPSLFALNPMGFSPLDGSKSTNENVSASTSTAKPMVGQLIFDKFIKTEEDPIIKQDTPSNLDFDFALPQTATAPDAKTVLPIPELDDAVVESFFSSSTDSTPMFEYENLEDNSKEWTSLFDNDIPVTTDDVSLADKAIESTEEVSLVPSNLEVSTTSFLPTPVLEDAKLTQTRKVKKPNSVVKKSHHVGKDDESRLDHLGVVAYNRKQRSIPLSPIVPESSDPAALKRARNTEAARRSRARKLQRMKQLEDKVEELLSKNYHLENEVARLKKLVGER
Substance,BACTH β-galactosidase activity [1],BACTH β-galactosidase activity (Leu zipper (Zip) [2]),BACTH β-galactosidase activity (Leu zipper (Zip) [3])
LysR-type transcriptional regulator Smc01817 (natural protein),460 MU,,
Leu zipper (Zip) (domain or fragment),,1640 Miller-Units,1370 Miller-Units
